Patent US20240425571A1, “GLYCOPROTEIN A REPETITIONS PREDOMINANT (GARP)-BINDING ANTIBODIES AND USES THEREOF” (OHIO STATE INNOVATION FOUNDATION, priority 2021, published 2024)

What was measured:
antigen = target: T1, antigen (Homo sapiens, UniProt Q14392); assay: Label-free kinetic binding assay on Gator; details: for Rmax / koff / kon: IgG 2 μg/ml on anti-human Fc probes, antigen 5 μg/ml
T1 sequence (Q14392 20-662): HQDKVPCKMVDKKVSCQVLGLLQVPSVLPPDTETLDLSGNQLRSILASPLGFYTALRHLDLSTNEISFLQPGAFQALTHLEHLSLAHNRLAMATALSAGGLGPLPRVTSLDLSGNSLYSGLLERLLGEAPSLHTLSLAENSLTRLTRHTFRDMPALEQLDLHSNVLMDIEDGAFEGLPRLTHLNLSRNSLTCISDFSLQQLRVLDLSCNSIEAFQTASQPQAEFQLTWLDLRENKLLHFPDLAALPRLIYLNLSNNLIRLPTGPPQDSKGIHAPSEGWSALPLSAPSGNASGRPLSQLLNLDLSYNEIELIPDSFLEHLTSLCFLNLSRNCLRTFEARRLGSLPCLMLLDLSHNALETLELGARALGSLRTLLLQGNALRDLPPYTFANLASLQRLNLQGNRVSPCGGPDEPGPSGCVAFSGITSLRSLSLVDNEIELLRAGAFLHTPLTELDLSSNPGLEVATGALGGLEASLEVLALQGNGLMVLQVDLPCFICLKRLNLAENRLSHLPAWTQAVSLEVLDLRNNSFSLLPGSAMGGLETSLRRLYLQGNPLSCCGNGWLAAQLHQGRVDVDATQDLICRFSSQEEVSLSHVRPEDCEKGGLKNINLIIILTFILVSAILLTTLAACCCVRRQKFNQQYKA
Procedure: Affinity measurement. Label-free kinetic binding assay was performed on Gator (similar to Octet).
Methods. Affinity was measured on Gator (ProbeLife, Palo Alto). In brief, the purified IgG sample was diluted in K buffer at 2 μg/ml, and the antigen was diluted at 5 μg/ml. The antibody-loaded anti-human Fc probes were dipped in antigen wells for 5 mins and then moved to K buffer wells for 5 mins. In the whole process, the sample plate was shaken at 1,000 rpm. The data analysis was carried out using Gator software (ProbeLife).

Ag(−) cell = assay: FACS analysis with Ag(−) cell (non-specific binding); details: 5 ug/ml
Procedure: Methods—FACS analysis. Cell preparation: Cell were harvested and washed with PBS+2% FBS for one time. Cell density was adjusted to 1.5E6/mL in PBS/2% FBS. Cell were added to 96 U-bottom well plates at 100 μL/well. Antibody samples preparation: Antibody in supernatant was adjusted to 10 μg/mL using PBS+2% FBS, with serial 5 times dilution performed to obtain 3 concentrations of antibody solution. The blank was PBS+2% FBS. Antibody solutions were placed into 96 U-bottom well plates at 100 μL/well in the same arranging pattern as the cell preparation. Incubation: The antibody samples (100 μl) were mixed with the cells (100 μl), and incubated at RT for 1 h, then centrifuged the plate for 3 min at 1000 rpm (swing bucket). The supernatant was pipetted and the cells were washed with PBS+2% FBS for one time. Incubation with the secondary antibody: Cy3-Conjugated AffiniPure Goat Anti-Human IgG was diluted 250× by PBS+2% FBS, and added to the 96 U-bottom well plate with 100 μl/well, then incubated at RT for 30 min. After that, the plate was centrifuged at 1000 rpm for 3 min and the supernatant was pipetted out. The cell was washed with PBS+2% FBS twice. Cells were re-suspended in 200 μl PBS+2% FBS and analyzed on FACS. The MFI of total live cells were used as binding signal.
Methods—heat treatment. Culture supernatant was serial diluted to the indicated concentration of IgG with cell media and heated at 70° C. for 5 mins on a PCR machine, then quickly cooled down to room temperature.

[1] = Thermostability by DSF/SLS (UNcle); assay type: physicochemical; details: for SLS Tagg 266: SLS at 266 nm; for SLS Tagg 473: SLS at 473 nm; for DSF TM2 / DSF Tm1: ramp 1° C./min, 20° C. to 95° C.
Procedure: Developability Analysis for PIIO-1 humanization leads. Antibodies were analyzed for thermostability by DSF/SLS. Samples were submitted to the UNcle system (Unchained Labs) for analysis. A temperature ramp of 1° C./min was performed with monitoring from 20° C. to 95° C. for DSF and SLS. UNcle measures SLS at 266 nm and 473 nm. Tm and Tagg were calculated and analyzed by using the UNcle Analysis Software. DSF: Differential scanning fluorimetry; SLS: Static light scattering; Tm: Melting temperature; Tagg 266: Thermal aggregation when SLS at 266 nm; Tagg 473: Thermal aggregation when SLS at 473 nm. A summary is shown below in Table F:
IgG is a multi-domain structure and each domain has its own melting Temperature (Tm). […] Fabs have Tm in a wide range, generally about 50-85° C., due to large sequence variation. Therefore, the Tm values measured by various analytical techniques are usually “apparent” transition temperatures rather than the real Tm for each domain. In the case of whole IgG, there are often 2-3 Tm values in DSF measurement, presenting some challenge in determining which Tm represents which domain.
Tagg is the temperature at which SLS starts to detect aggregation particles. Tagg266 measures SLS at 266 nm, which is more sensitive and suitable to detect smaller aggregation particles. Tagg473 measures SLS at 473 nm and is better to detect larger particles.

[2] = Non-reducing CE-SDS (heterogeneity); assay type: physicochemical
Procedure: (§1) Analysis of the heterogeneity by Capillary Electrophoresis (CE). The sample was prepared in reducing and non-reducing labeling buffer before being submitted to the CE analysis. A summary of the Reducing-CE-SDS and Non-Reducing-CE-SDS results are shown in FIG. 13A/Table H and FIG. 13B/Table I, respectively: […]

[3] = Reducing CE-SDS (heterogeneity); assay type: physicochemical; details: Reducing-CE-SDS
Procedure: as §1

[4] = Aggregation potential by DLS analysis; assay type: physicochemical; details: for Peak 1 Mass / Peak 1 Mode Diameter / Peak 1 PDI / Peak 2 Mass: DLS at 25° C.
Procedure: Aggregation potential by DLS analysis. DLS was performed on UNcle system (Unchained Labs). DLS was measured at 25° C. Data was calculated and analyzed using UNcle Analysis Software. DLS: Dynamic light scattering PDI: Polydispersity index, PDI=(standard deviation/mean hydrodynamic radius).
Dynamic Light Scattering (DLS) is used to detect aggregation in the antibody sample. “Mode diameter” is protein particle diameter and “mass percentage” is the amount of each size fraction in percentage. “PDI” is Polydispersity Index; the higher this index, the more polydispersity in the sample is. […] Peak 1 is the major peak and represents the IgG monomer. The inventor takes “Peak 1 mass percentage” and “PDI” value into consideration in selecting a lead.

Baculovirus = Baculovirus (BV) ELISA for non-specific binding
Procedure: Baculovirus (BV) ELISA was employed as a preliminary assay to evaluate antibody's potential nonspecific binding risk.
In Baculovirus (BV) ELISA, the inventor used Rituxan Mab as reference. […] If a clone only has binding on BV, but not on 293 cells, it will be considered as having a low risk of non-specific binding.
Methods—Baculovirus ELISA. Plates are coated with 50 μl of 1:500 diluted Baculovirus sample in PBS in each well. Plates are kept at 4° C. for overnight. The plates are washed with 300 μL of wash buffer ×3 and 200 μl blocking buffer (1% BSA) is added at RT for 60 min. Plates are washed with 300 μl of wash buffer ×3 and 100 μl of diluted Abs are added at different concentrations/well, followed by RT incubation for 1 hr. Plates are washed with 300 μl of wash buffer ×6 and 100 μl of 1:5000 HRP conjugated second Ab in PBS is added followed by RT incubation for 1 hr. The plates are washed with 300 μl of wash buffer ×6. Developing buffer is added and the plate is read.

| Molecule | KD value compared with the chimeric (antigen) | Rmax (antigen) | koff (antigen) | kon (antigen) | FACS with Ag(−) cell (MFI) (Ag(−) cell; Heating) | FACS with Ag(−) cell (MFI) (Ag(−) cell; Non-Heating) | SLS Tagg 266 [1] [°C] | SLS Tagg 473 [1] [°C] | DSF TM2 [1] [°C] | DSF Tm1 [1] [°C] | Main Peak (%) [2] [%] | OTHER (%) [2] [%] | OTHER (%) [3] [%] | PK#1 (%) [3] [%] | PK#2 (%) [3] [%] | PK#3 (%) [3] [%] | Peak 1 Mass [4] [%] | Peak 1 Mode Diameter [4] [nm] | Peak 1 PDI [4] | Peak 2 Mass [4] [%] | other results |
| --- | --- | --- | --- | --- | --- | --- | --- | --- | --- | --- | --- | --- | --- | --- | --- | --- | --- | --- | --- | --- | --- |
| H2L1: humanized PIIO-1 antibody, VH SEQ ID NO: 21 and VL SEQ ID NO: 23 (antibody, V domains shown) VH: QVQLQESGPGLVKPSQTLSLTCTVSGYSITSDYAWNWIRQFPGNKLEWMGYISYSGSTSYTPSLKSRITISRDTSKNHFFLKLSSVTAADTAVYYCAKSGGDYYGSSSYWYFDVWGQGTMVTVSS VL: DIVLTQSPSSLAVSLGERATMNCKSSQSLLNSRSQKNYLAWYQQKPGQPPKLLIYGASTRGSGVPDRFSGSGSGTDFTLTISSLQAEDVAVYYCQNDHSYPFTFGQGTKLEIKR | same KD value to the chimeric | 0.756 | 0.000806 | 1.00E+05 | 3.29 | 3.23 | 73.7 | 74.7 | 83.2 | 69.9 | 89.1 | 10.8 | 2.7 | 21.7 | 6.9 | 68.7 | 100 | 9.68 | 0.141 | 0 | comparison of humanized antibodies by Table G [4]: superior to huPIIO-1VH1VL1; BV ELISA with purified IgG, raw BV binding data (Baculovirus; Ab. Conc. 0.15625 ug/ml): 14.5; BV ELISA with purified IgG, raw BV binding data (Baculovirus; Ab. Conc. 0.3125 ug/ml): 14.6; BV ELISA with purified IgG, raw BV binding data (Baculovirus; Ab. Conc. 0.625 ug/ml): 15.6; BV ELISA with purified IgG, raw BV binding data (Baculovirus; Ab. Conc. 1.25 ug/ml): 18.3; BV ELISA with purified IgG, raw BV binding data (Baculovirus; Ab. Conc. 2.5 ug/ml): 17.8; BV ELISA with purified IgG, raw BV binding data (Baculovirus; Ab. Conc. 5 ug/ml): 30.8; BV ELISA with purified IgG, raw BV binding data (Baculovirus; Ab. Conc. 10 ug/ml): 82.7; BV ELISA with purified IgG, raw BV binding data (Baculovirus; Ab. Conc. 20 ug/ml): 161.0 |
| H1L1: humanized PIIO-1 antibody, VH SEQ ID NO: 20 and VL SEQ ID NO: 23 (antibody, V domains shown) VH: QVQLQESGPGLVKPSQTLSLTCTVSGYSITSDYAWNWIRQFPGNKLEWMGYISYSGSTSYTPSLKSRVTISRDTSKNHFSLKLSSVTAADTAVYYCAKSGGDYYGSSSYWYFDVWGQGTMVTVSS VL: DIVLTQSPSSLAVSLGERATMNCKSSQSLLNSRSQKNYLAWYQQKPGQPPKLLIYGASTRGSGVPDRFSGSGSGTDFTLTISSLQAEDVAVYYCQNDHSYPFTFGQGTKLEIKR | same KD value to the chimeric | 0.791 | 0.00081 | 1.01E+05 | 3.36 | 3.31 | 74.2 | 74.9 | 83.7 | 70.2 | 97.6 | 2.4 | 0.9 | 5.6 | 23.2 | 70.4 | 99.95 | 9.68 | 1.228 | 0 | PDI compared with WT [4]: slight worse than WT; BV ELISA with purified IgG, raw BV binding data (Baculovirus; Ab. Conc. 0.15625 ug/ml): 15.0; BV ELISA with purified IgG, raw BV binding data (Baculovirus; Ab. Conc. 0.3125 ug/ml): 16.2; BV ELISA with purified IgG, raw BV binding data (Baculovirus; Ab. Conc. 0.625 ug/ml): 14.7; BV ELISA with purified IgG, raw BV binding data (Baculovirus; Ab. Conc. 1.25 ug/ml): 16.0; BV ELISA with purified IgG, raw BV binding data (Baculovirus; Ab. Conc. 2.5 ug/ml): 18.3; BV ELISA with purified IgG, raw BV binding data (Baculovirus; Ab. Conc. 5 ug/ml): 24.9; BV ELISA with purified IgG, raw BV binding data (Baculovirus; Ab. Conc. 10 ug/ml): 52.7; BV ELISA with purified IgG, raw BV binding data (Baculovirus; Ab. Conc. 20 ug/ml): 157.2 |
